Here are results for 23 substances from patent US5972683.

The target of experiment [1] is succinyl-Ala-Ala-Pro-Ala-p-nitroanilide (Artificial Sequence).
Experiment [2] concerns the target succinyl-Ala-Ala-Val-Ala-p-nitroanilide (Artificial Sequence).
For experiment [3], the target named is succinyl-Ala-Ala-Pro-Leu-p-nitroanilide.
Experiment [4] addresses succinyl-Ala-Ala-Pro-Phe-p-nitroanilide (Artificial Sequence).

With subtilisin YaB mutant 151L (enzyme), the Specific activity (unit/mg protein), casein (unit/mg protein) with casein came out at 717. Moreover, the Specific activity (unit/mg protein), elastin-orcein (unit/mg protein) with elastin-orcein came to 161.
In turn, subtilisin YaB mutant G124A (enzyme) showed a Specific activity (unit/mg protein), myofibril (unit/mg protein) with myofibrillar protein of 1020. Also, in the experiment with casein, the Specific activity (unit/mg protein), casein (unit/mg protein) came out at 3800. Further, the Specific activity (unit/mg protein), elastin-orcein (unit/mg protein) in the experiment with elastin-orcein came out at 647.
As for “subtilisin YaB mutant G124A (enzyme; unit assumed)”, the kcat /Km in experiment [1] was 17000 M⁻¹ s⁻¹; in experiment [2] it was 122000 M⁻¹ s⁻¹.
Substance subtilisin YaB mutant G124I (enzyme) had a Specific activity (unit/mg protein), myofibril (unit/mg protein) in the experiment with myofibrillar protein of 717. Further, the Specific activity (unit/mg protein), casein (unit/mg protein) in the experiment with casein was 602. Besides, in the experiment with elastin-orcein, the Specific activity (unit/mg protein), elastin-orcein (unit/mg protein) worked out at 64.
In the same order, the values of subtilisin YaB mutant G124L (enzyme) are 366, 1250 and 157.
On to subtilisin YaB mutant G124V (enzyme), for which the Specific activity (unit/mg protein), myofibril (unit/mg protein) in the experiment with myofibrillar protein is 605. For the same substance, in the experiment with casein, the Specific activity (unit/mg protein), casein (unit/mg protein) worked out at 1400. The substance further had a Specific activity (unit/mg protein), elastin-orcein (unit/mg protein) in the experiment with elastin-orcein of 425.
On to “subtilisin YaB mutant G124V (enzyme; unit assumed)”, for which the kcat /Km in experiment [1] was 416 M⁻¹ s⁻¹; in experiment [2], 6480 M⁻¹ s⁻¹.
In the experiment with myofibrillar protein, subtilisin YaB mutant G151A (enzyme) yielded a Specific activity (unit/mg protein), myofibril (unit/mg protein) of 750. In the experiment with casein, this substance yielded a Specific activity (unit/mg protein), casein (unit/mg protein) of 1780. Also, the Specific activity (unit/mg protein), elastin-orcein (unit/mg protein) in the experiment with elastin-orcein was determined as 355.
Turning to “subtilisin YaB mutant G151A (enzyme; unit assumed)”, the kcat /Km in experiment [3] came out at 5590 M⁻¹ s⁻¹; in experiment [1], 2690 M⁻¹ s⁻¹; in experiment [2], 56100 M⁻¹ s⁻¹.
On to subtilisin YaB mutant G151I (enzyme), for which the Specific activity (unit/mg protein), casein (unit/mg protein) in the experiment with casein came out at 511. This substance showed a Specific activity (unit/mg protein), elastin-orcein (unit/mg protein) in the experiment with elastin-orcein of 138.
In the experiment with casein, subtilisin YaB mutant G151V (enzyme) showed a Specific activity (unit/mg protein), casein (unit/mg protein) of 618. For the same substance, the Specific activity (unit/mg protein), elastin-orcein (unit/mg protein) with elastin-orcein is 148.
subtilisin YaB mutant G159A (enzyme): in the experiment with myofibrillar protein, the Specific activity (unit/mg protein), myofibril (unit/mg protein) was determined as 2040. This substance showed a Specific activity (unit/mg protein), casein (unit/mg protein) with casein of 7780. In the experiment with elastin-orcein, this substance had a Specific activity (unit/mg protein), elastin-orcein (unit/mg protein) of 2080.
Regarding “subtilisin YaB mutant G159A (enzyme; unit assumed)”, the kcat /Km amounted to 3860 M⁻¹ s⁻¹ in experiment [3], 1040 M⁻¹ s⁻¹ in experiment [1], 15700 M⁻¹ s⁻¹ in experiment [2] and 40500 M⁻¹ s⁻¹ in experiment [4].
In turn, subtilisin YaB mutant G159F (enzyme) had a Specific activity (unit/mg protein), casein (unit/mg protein) with casein of 135. Besides, the Specific activity (unit/mg protein), elastin-orcein (unit/mg protein) with elastin-orcein came to 12.
Consider subtilisin YaB mutant G159I (enzyme), for which the Specific activity (unit/mg protein), casein (unit/mg protein) with casein came to 872. The substance further registered a Specific activity (unit/mg protein), elastin-orcein (unit/mg protein) with elastin-orcein of 142.
The matching figures for subtilisin YaB mutant G159L (enzyme): 112 and 9.
Consider subtilisin YaB mutant G159S (enzyme), for which, in the experiment with myofibrillar protein, the Specific activity (unit/mg protein), myofibril (unit/mg protein) is 2330. Further, the Specific activity (unit/mg protein), casein (unit/mg protein) with casein was determined as 8940. In addition, the Specific activity (unit/mg protein), elastin-orcein (unit/mg protein) in the experiment with elastin-orcein worked out at 1510.
Take “subtilisin YaB mutant G159S (enzyme; unit assumed)”: the kcat /Km was 4130 M⁻¹ s⁻¹ in experiment [3], 1600 M⁻¹ s⁻¹ in experiment [1], 19800 M⁻¹ s⁻¹ in experiment [2] and 35700 M⁻¹ s⁻¹ in experiment [4].
Substance subtilisin YaB mutant G159V (enzyme) registered a Specific activity (unit/mg protein), casein (unit/mg protein) with casein of 431. The same substance yielded a Specific activity (unit/mg protein), elastin-orcein (unit/mg protein) with elastin-orcein of 37.
In the experiment with myofibrillar protein, subtilisin YaB mutant G159W (enzyme) had a Specific activity (unit/mg protein), myofibril (unit/mg protein) of 672. The substance further showed a Specific activity (unit/mg protein), casein (unit/mg protein) with casein of 1630. The Specific activity (unit/mg protein), elastin-orcein (unit/mg protein) with elastin-orcein stood at 324.
subtilisin YaB mutant G159Y (enzyme): the Specific activity (unit/mg protein), casein (unit/mg protein) in the experiment with casein stood at 1010. The Specific activity (unit/mg protein), elastin-orcein (unit/mg protein) with elastin-orcein stood at 203.
Substance wild type subtilisin YaB (enzyme) yielded a Specific activity (unit/mg protein), myofibril (unit/mg protein) with myofibrillar protein of 5160. In the experiment with casein, this substance registered a Specific activity (unit/mg protein), casein (unit/mg protein) of 8250. The Specific activity (unit/mg protein), elastin-orcein (unit/mg protein) with elastin-orcein came to 541.
With “wild type subtilisin YaB (enzyme; unit assumed)”, the kcat /Km in experiment [3] came out at 5250 M⁻¹ s⁻¹; in experiment [1], 1670 M⁻¹ s⁻¹; in experiment [2], 14200 M⁻¹ s⁻¹; in experiment [4], 4600 M⁻¹ s⁻¹.
